We go through one protein from publication PMC8194188, “Kinetic modeling of phosphorylase-catalyzed iterative β-1,4-glycosylation for degree of polymerization-controlled synthesis of soluble cello-oligosaccharides” (Biotechnology for Biofuels, 2021).

Substrate in the data set: O=P(O)(O)O[C@H]1O[C@H](CO)[C@@H](O)[C@H](O)[C@H]1O
Kind of data set: initial rates from phosphate release, Michaelis-Menten fit. In kind it is biochemical, [Clostridium] cellulosi. As to conditions: 100 mM cellobiose (saturating), 50 mM MES pH 7.0, 45 °C, synthesis direction.

Broadly, the Km is the concentration of substrate that gives half-maximal velocity.

B1: CcCdP (cellodextrin phosphorylase from Clostridium cellulosi) ([Clostridium] cellulosi) (protein)
chain: MITKVTPRSCKLTPFEILKQKFGSIIAMSGCADAIYSDSSCKNVIGITGLPIKAPVIQVLLENSKLAAFLNEYVQNKSVCLALEGMRYCLVFEDGQKVKLPQELDDIIQSTVSDVKNWAGTLTENGEHVIDLKKPSPGPHFYVNLLIGNRLGFNRTLQTTPKSVVDRFGRGSFRSHAATQVLATRYDMRQEENGFPANRQFYLYENGKQIFYSGSVDDDNILEAKCIHSCNRTVIKYKTACKLEITRTIFLCPQKKGLPLATEIQIINIKNNSERKRNLSITYTGMFGTAATHAIFEDVTYTNVIMQSAALYNDNGEFIGITPDYYRKKYNEDTRFVTMFVRKDGKRIFPKSFCTDYNDFVGNGTLEHPAGGEHLNNKLNRKGPGFFALGTPFTIMPGQDIEIDTFTGMSSSKDNPNYDDTTMPKELEALLRYFEASDSVQSALREVIDFQEKYCKYIEFKTEDKMFNAGFNKNLAFQILYQTFMSRSFCQTQKGYREIGFREIQDLYASMYYFINLGYQDFVKNLLFEWTSNVYKMGYANHNFYWVGKQPGLYSDDSLWLLQAYYRYIIYTKDTSILNEEVPVADGNNEKRAVRDTLKAIIQYSAFISVGNHGLPLLDLADWNDCLKIDNDYVDGAQKEKLYYKQLKETGGKYGDRFMSDYSESVMNAFLLKVAVDDLAEIAELDKDAELEQSMRKISSALSEKIQKYAWKGNFFARVLLNRYKDGSFTYIGAKGDKLSADPNIDGTYFLNSFSWAILSGVATDEQIGIMVDTLKKYMLTPYGIRLTTPADLNKLANDTATDHYFYGDRENGAVFKHASMMATAALAKAAKSVKDKALAKEMARLAYYMIDLVLPYKNLEDPFKLAGNPRICTQYINADSGENIGPLLSGTATWLNLTITSLAGIEYVKDGIMFSPVLREDETRLEYSLKAPGCSYNITITKPRGFARLIDSAYDLRIDGKKTDNCIIPMFTDGKEHSVTLEFK
notes: N-terminally His-tagged, recombinant, purified
B1: the Km was found to be 470 ± 240 µM.
